Article PMC2364164

Molecular target: recombinant fusion protein of MVP and glutathione-S-transferase (GST-MVP) (human) (UniProt Q14764)
Assay: SPR; BIAcore 2000; GST-MVP immobilised on CM-5 sensorchip (2000 resonance units); soluble Fab flowed at 25 μl per minute, room temperature, HBS-EP (0.01 M HEPES pH 7.4, 0.15 M NaCl, 3 mM EDTA, 0.005% polysorbate 20); dissociation rates only

Chain of UniProt Q14764 (Q14764 whole entry, the tested form may be a part): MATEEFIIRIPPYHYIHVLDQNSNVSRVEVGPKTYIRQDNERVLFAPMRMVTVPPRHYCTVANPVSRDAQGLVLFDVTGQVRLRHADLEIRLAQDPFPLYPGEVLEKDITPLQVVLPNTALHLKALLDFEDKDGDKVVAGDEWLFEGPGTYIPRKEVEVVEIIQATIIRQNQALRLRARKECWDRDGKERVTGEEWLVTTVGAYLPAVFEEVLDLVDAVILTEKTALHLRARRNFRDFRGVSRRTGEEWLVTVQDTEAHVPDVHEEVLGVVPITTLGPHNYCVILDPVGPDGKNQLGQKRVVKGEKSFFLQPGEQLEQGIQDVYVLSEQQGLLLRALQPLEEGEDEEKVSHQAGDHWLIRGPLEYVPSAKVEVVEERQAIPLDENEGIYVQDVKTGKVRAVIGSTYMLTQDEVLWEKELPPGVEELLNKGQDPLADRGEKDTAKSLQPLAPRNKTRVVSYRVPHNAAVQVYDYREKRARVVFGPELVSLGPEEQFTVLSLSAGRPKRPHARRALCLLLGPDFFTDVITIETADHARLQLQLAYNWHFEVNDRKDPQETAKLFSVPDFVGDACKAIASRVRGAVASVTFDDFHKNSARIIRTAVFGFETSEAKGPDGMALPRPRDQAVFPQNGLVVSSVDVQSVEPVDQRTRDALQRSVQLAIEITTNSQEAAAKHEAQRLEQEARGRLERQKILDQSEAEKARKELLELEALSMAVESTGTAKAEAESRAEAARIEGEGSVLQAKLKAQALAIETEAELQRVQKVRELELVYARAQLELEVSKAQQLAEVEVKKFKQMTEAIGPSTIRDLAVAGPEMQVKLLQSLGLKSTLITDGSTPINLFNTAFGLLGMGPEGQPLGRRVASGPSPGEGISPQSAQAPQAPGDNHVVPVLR

- koff: 0.0013 s⁻¹
B1: MVP-φ4 human Fab fragment (soluble) (Fab, V domains shown)
VH: QLQLQESGPGLVKPSETLSLTCSVSGGSISSGGYYWSWIRQRPGKGLEWIGYIYYSGSTTYNPSLKSRVTMSVDTSKNQFSLKLSSVTAADTAFYYCARQGVYYYYGMDVWGQGTTVTVSS
VL: NFMLTQPHSVSESPGKTITISCTRSSGSIGSNYVYWYQQRPDSSPTIVIYADNERPSGVPGRFSGSIDSSSNSASLTISGLRAEDEADYYCQSYSNNKWIFGGGTKVTVL
